According to PMC13577001, “Crystal structures of the μ2 subunit of clathrin-adaptor protein 2 in complex with peptides derived from human papillomavirus 16 E7” (The Journal of Microbiology, 2025):
Residue numbers refer to the chain shown, from its start. Names and notes keep the numbering of the source. Read-outs that look alike come from different tables or passages of the source. No end group written: not given here.

T1: AP2-μ2 (μ2 subunit of clathrin-adaptor protein 2, residues 158–435) (Rattus norvegicus, UniProt P84092)
T1 construct: recombinant AP2-μ2 protein (residues 158–435) expressed in E. coli; made in house; host or cells: Escherichia coli BL21(DE3) RIL
T1 sequence (P84092 158-435): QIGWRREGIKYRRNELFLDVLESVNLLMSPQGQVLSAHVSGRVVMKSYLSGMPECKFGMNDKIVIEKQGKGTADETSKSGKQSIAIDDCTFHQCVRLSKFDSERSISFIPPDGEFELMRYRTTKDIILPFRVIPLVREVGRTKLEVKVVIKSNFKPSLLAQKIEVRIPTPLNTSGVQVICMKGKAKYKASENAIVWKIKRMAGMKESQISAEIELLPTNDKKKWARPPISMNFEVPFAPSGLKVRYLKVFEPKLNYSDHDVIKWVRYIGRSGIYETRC

T2: μ2 subunit of clathrin-adaptor protein 2 (AP2-μ2), residues 158–435, wild type (rat, UniProt P84092 158-435)
T2 construct: also called recombinant AP2-μ2; μ2 subunit of rat AP2; source: E. coli BL21(DE3) RIL, purified (Ni-NTA, SEC)
T2 sequence (looked up): T1 sequence (P84092 158-435)

T3: μ2 subunit of clathrin-adaptor protein 2 (AP2-μ2), residues 158–435, wild type (rat, UniProt P84092 158-435)
T3 chain: T1 sequence (P84092 158-435)

T4: AP2-μ2 (residues 158–435) R402A∙K405A mutant (rat, UniProt P84092 158-435, R402A | K405A)
T4 construct: also called R402A∙K405A mutant recombinant AP2-μ2; source: E. coli, purified by the same protocol as the wild-type protein
T4 sequence: T1 sequence (P84092 158-435) with R245A, K248A

B1: HPV16 E7(22–39; S31E∙S32E) 18-mer phosphomimetic peptide (peptide)
peptide: LYCYEQLNDEEEEEDEID
notes: HPV16 E7 residues 22–39 with S31E and S32E; source: synthetic peptide, bought: Dandicure (Korea)
B2: HPV16 E7(22–39) wild-type 18-mer peptide (peptide)
peptide: LYCYEQLNDSSEEEDEID
notes: HPV16 E7 residues 22–39; source: synthetic peptide, bought: Dandicure (Korea)
B3: HPV16 E7(22–32; S31E∙S32E) 11-mer phosphomimetic peptide (peptide)
peptide: LYCYEQLNDEE
notes: also called 11-mer phosphomimetic mutant HPV16 E7 peptide; source: synthetic peptide, bought: Dandicure (Korea)
B4: HPV16 E7(22–32) wild-type 11-mer peptide (peptide)
peptide: LYCYEQLNDSS
notes: source: synthetic peptide, bought: Dandicure (Korea)
B5: HPV16 E7(16–32; S31E∙S32E) 17-mer peptide (peptide)
peptide: QPETTDLYCYEQLNDEE
notes: as for B4

Assays:
PIP5KIγ (Homo sapiens) = experiment: ITC; conditions: cited from earlier work
[1] = molecular target: integrin α4 (Homo sapiens); experiment: ITC; conditions: cited from earlier work
[2] = molecular target: T1, AP2-μ2 (μ2 subunit of clathrin-adaptor protein 2, residues 158–435); experiment: ITC binding of HPV E7-derived synthetic peptides to recombinant wild-type AP2-μ2; conditions: for binding to AP2-μ2 in ITC (result in words): peptide titrated into wild-type recombinant AP2-μ2
Description: A DNA fragment encoding residues 158–435 of the μ2 subunit of rat AP2 was cloned into a modified pET28a plasmid (Novagen, USA) to produce a recombinant protein tagged with (His)10−maltose-binding protein. The recombinant protein was expressed in Escherichia coli BL21(DE3) RIL cells (Novagen) grown in Luria-Bertani medium at 18°C for 16 h following induction with 0.5 mM isopropyl β-D-thiogalactopyranoside. Proteins were purified using Ni-NTA affinity chromatography (QIAGEN, Germany), followed by size-exclusion chromatography on a HiLoad 26/600 Superdex 200 prep grade column (Cytiva, USA). The (His)10−maltose-binding protein tag was cleaved by TEV protease and removed during subsequent purification steps. Final protein samples were equilibrated in a buffer containing 50 mM Tris-HCl (pH 7.5), 500 mM NaCl, and 3 mM β-mercaptoethanol. […] Crystals were obtained using the sitting-drop vapor diffusion method at 18°C by from a mixture of 1 μl protein solution (10 mg/ml) and 1 μl precipitant solution. […] X-ray diffraction data were collected at beamlines 5C and 7A of the Pohang Accelerator Laboratory (Korea) and processed using HKL2000 ([Otwinowski and Minor, 1997]). Molecular replacement was performed using Phaser ([McCoy et al., 2007]) with the structure of AP2-μ2 complexed with a PIP5KIγ-derived peptide (Protein Data Bank [PDB] code: 3H85) used as the search model ([Kahlfeldt et al., 2010]). Model building and refinement were performed using Coot ([Emsley and Cowtan, 2004]) and PHENIX ([Adams et al., 2010]), respectively.
Recombinant AP2-μ2 protein harboring R402A∙K405A mutations was prepared and purified using the same protocol as that used for the wild-type protein. […] All peptides were dialyzed against the same buffer used for AP2-μ2 purification. Isothermal titration calorimetry (ITC) was performed using recombinant AP2-μ2 proteins and synthetic peptides as previously described ([Jung et al., 2023]; [Lim et al., 2021]).
Fig. 2. ITC analysis of the effect of the Y-x-x-Φ motif on complex formation. Each peptide (0.2 mM) was titrated into 10 μM recombinant AP2-μ2 as indicated. KD and Ka values were deduced from curve fitting of the integrated heat per mole of added ligand. Mutated residues are highlighted in blue.
Fig. 3. ITC analysis of the effect of the acidic cluster region on complex formation. Each peptide was titrated into wild-type (A) or R402A∙K405A mutant (B) recombinant AP2-μ2 as indicated. KD and Ka values were obtained by curve-fitting of the integrated heat per mole of added ligand. Mutated residues are highlighted in blue. […] Negatively charged cluster residues are marked in red.

[3] = molecular target: T2, μ2 subunit of clathrin-adaptor protein …; experiment: ITC; peptide titrated into recombinant AP2-μ2; 50 mM Tris-HCl (pH 7.5), 500 mM NaCl, 3 mM β-mercaptoethanol; in Fig. 2 peptide 0.2 mM into 10 μM AP2-μ2; conditions: both partners purified
[4] = molecular target: T3, μ2 subunit of clathrin-adaptor protein …; experiment: ITC
[5] = molecular target: T3, μ2 subunit of clathrin-adaptor protein …; experiment: ITC
[6] = molecular target: T4, AP2-μ2 (residues 158–435) R402A∙K405A …; experiment: ITC; peptide titrated into recombinant AP2-μ2; 50 mM Tris-HCl (pH 7.5), 500 mM NaCl, 3 mM β-mercaptoethanol; in Fig. 2 peptide 0.2 mM into 10 μM AP2-μ2; conditions: both partners purified

Molecule | binding to AP2-μ2 in ITC (result in words) [2] | Kd [3] [µM] | other results
AP2-μ2 (from UniProt Q96CW1) | – | – | Kd (PIP5KIγ (Homo sapiens)): 6 µM; Kd [1]: 72 µM
Y25N: 11-mer HPV16 E7 residues 22–32 synthetic peptide with Y25N mutation (LYCNEQLNDSS) | severely impaired | – | –
LHCYEELSEEETEEEPRF [HPV15 E7(24–41)] | – | – | Kd [2]: 13.3 µM
Y25H: 11-mer HPV16 E7 residues 22–32 synthetic peptide with Y25H mutation (LYCHEQLNDSS) | severely impaired | – | –
L28A: 11-mer HPV16 E7 residues 22–32 synthetic peptide with L28A mutation (LYCYEQANDSS) | severely impaired | – | –
residues 25–42 of HPV18 E7: 18-mer peptide lacking the Y-x-x-Φ motif, residues 25–42 of HPV18 E7 (LLCHEQLSDSEEENDEID; UniProt P06788 25-42, looked up, fragment) | did not bind | – | –
B1 | – | 2.34 | –
B2 | – | 3.34 | Ka [4]: 299000 M⁻¹
B3 | – | 1.54 | –
B4 | – | 5.88 | Ka [5]: 170000 M⁻¹
B5 | – | 1.64 | Kd [6]: 8.26 µM
